Assay results reported in the nanobody polyreactivity screen of Harvey et al. (2022).

Assay: yeast display, Sf9 membrane polyspecificity reagent, FACS + sequencing; frameworks hold sequencing errors
Method in brief: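 Nanobodies came from a synthetic yeast display library in Saccharomyces cerevisiae BJ5465, induced with galactose for 36–48 hours and stained for 1 hour at 4 °C with 10% biotinylated, detergent-solubilized Sf9 membrane reagent. Cells were enriched on streptavidin microbeads and then FACS-sorted, with low and high (top ~1%) gates set on anti-HA fluorescence for expression and streptavidin fluorescence for reagent binding. Each polyreactivity label reflects the gate a clone came from. Genes were amplified by colony PCR, sequenced by MiSeq 2 × 250 and filtered by CDR length.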

Row | Sequence | polyreactivity (PSR sort gate)
1 | QLQLVESGGGLVQAGGSLRLICAASGLIFFWYTMGWYRQAPGKDRELVAAIDSGGSTYYADSVKGRFTNSRDNAKYTVYLEMISLKPEDTAVYYCAADSFYLYIEYYYWGQGTQVTVSS | high polyreactivity
2 | QLQLVESGGGLVQAGGSLRLICAASGRIFATYAMGWYRQAPGKEREFVAAITKGGVRTYYADSVKGRFTISRDNAKNTVYLQMNSLKPEDTAVYYCAADAWVRGRYPYGYDYWGQGTQVTVSS | low polyreactivity
3 | QLQLVESGGGLVQAGGSLRLRCAASGRIFVRYAMGWYRQEPGKERELVAAISTRGGSTYYADSVKGRFTISRDKAKNTVYLQMNSLKAEDTAVYYCASGPRPRPSDYWGQGTQVTGSS | high polyreactivity
4 | QLQLVESGGGLVQAGGSLRLRCAASGRTFIRYAMGWYRPAPGKERELVAAISSRGGRTHYADSVKGRFTISRDNAKNTFYFQMNSLKPEDTAVYDCAADLNYGTVPGASYDYWGQGTQVTGSS | low polyreactivity
5 | QLQLVESGGGLVQAGGSLRLSCAASGFIFSWYAMGWYRQAPGKERELVAAISWSGGSTYYADSVKGRITISRDNANNSVYLQMNSLKPEDTAVYYCADDRGWAKEYYWVQGTQVTVSS | high polyreactivity
6 | QLQLVESGGGLVQAGGSLRLSCAASGFTFQYYAMGWYRQAPCKERELVAVISRSGGRTYYADSVKGRFTISRDNAKYTVYLQMYSLKPEDTAVYYCAALSQPGQRDDNQYDYWGQGTQVTVSS | high polyreactivity
7 | QLQLVESGGGLVQAGGSLRLSCAASGFTFRYYAMGWYRQAPGKERELVAAITRSGTTSYADSVKGRFTISRDNAKNTVYLQMNSLKPEDTAVYYCNTRVTGNRLGYYYWGQGTQVTVSS | high polyreactivity
8 | QLQLVESGGGLVQAGGSLRLSCAASGFTFVSNAMGWYRQAPGKERELVAVISSGGSTTYADSVKGRFSISPDNAKNTVYLQMNSLKPEDTAGYYCATTNSQDSYEGGDYWGQGTQVTVSS | low polyreactivity
9 | QLQLVESGGGLVQAGGSLRLSCAASGFTSDVYAKVSYRQAPGKERELVAEISARGGSTYYADSVKGRFTISRDNAKNTVYLQMNSLKPEDTAVYYCAAEVYVGTIGFYADFFYYPVYYWGQGTQVTVSS | low polyreactivity
10 | QLQLVESGGGLVQAGGSLRLSCAASGIIFYWNAMGWYRQAPGKEREFVASISGSGGSTYADSVKGRFTISRDNAKNTVYLQMNSLKPEDTAVYYCAADFSNVGVQHDYYWGQGTQVTVSS | high polyreactivity
11 | QLQLVESGGGLVQAGGSLRLSCAASGNIFNYNAMGWYRQAPGKERELVAAISFSGGSTYYADSVKGRFTISRDNAQNTVYLQMNSLKPEDTAVYYCAKAERNYFEDWGQGTQVTVSS | high polyreactivity
12 | QLQLVESGGGLVQAGGSLRLSCAASGNTFFPYTMGWYRQAPGKERELVAAITWSGVSTYYADSVKGRFTISRDNAKYTVDLQMNSLKPEDTAVYYCAAPSTGTYGSDYWGQGTQVTVSS | high polyreactivity
13 | QLQLVESGGGLVQAGGSLRLSCAASGRIFKFNAMGWYRQATGKERELVARITWRGGSPYYADSVKGRFTISRDNAKNTVYLQLNSLKPEDTAVYDCATYTPWTRFYSGTEVGYWGQGTQVTVSS | high polyreactivity
14 | QLQLVESGGGLVQAGGSLRLSCAASGRIFRGYAMGWYRQAPGKERELVAAISGSGGSTYYADSVKGRFTISRDNAKNSVYLQMNSLKPEDTAVYYCAAEGRNYYGSYDYWGQGTQVTVSS | low polyreactivity
15 | QLQLVESGGGLVQAGGSLRLSCAASGRTFSTYAMGWYRQAPGKEIELVAAISSGGGRTYYADSVKGRFTISRDNAKNTVYLQMNSLKQEDTAVYYCAADRYFRSRRSYEYWGQGTQVTVSS | low polyreactivity
16 | QLQLVESGGGLVQAGGSLRLSCAASGRTFSYNTMGWYRHAPGKERELVAAISWSGGSTYYADSVKGRFTISRDNAKNTVYLQMNSLKPEDSAVYYCNARSSGKGRSNAYYKGHGYWGQGTQVTVSS | high polyreactivity
17 | QLQLVESGGGLVQAGGSLRLSCAASGSIFASNAMGWYRQAPGKERELVAAISSGGSRTYYADSVKGRFTISRDNAKNSVYLQMNSLKPEDTAVYYCNTVWFYGAKYDYWGQGTQVTVSS | high polyreactivity
18 | QLQLVESGGGLVQAGGSLRLSCAASGSIFDVYTMGWYRQAPGKERELVAAINTCGGSTYYADSVKGRFTISRDNAKNTVYLQMNSLKPEDTAVYYCAASVYHYGPLYYWGQGTQVTVSS | low polyreactivity
19 | QLQLVESGGGLVQAGGSLRLSCAASGSIFTWYAMGWYRQAPGKERELVAAITRGGSTYADSVKGRFTISRDNAKNTVNLQMNSLKPEDTAVYYCNAVYGVYDFNYWGQGTQVTGSS | low polyreactivity
20 | QLQLVESGGGLVQAGGSLRLSCAASGSNISYYAMGWSRQAPGKERELVAAISKRGASTYYADSVKGRFTISRDKAKNTVFLQMNSLKPEDTAVYYCAAYRQGSAYDYWGQGTQVTVSS | high polyreactivity
21 | QLQLVESGGGLVQAGGSLRLSCAASGSTASINAMGWYRQAPGKERELVADISTNGDSTSYADSVKGRFTISRDNAKNTVYLQMNSLKPEDTAVYYCNAVPHIYAEGTAYKYWGQGTQETVSS | low polyreactivity
22 | QLQLVESGGGLVQAGGSLRLSCAASGSTFDVNAMGWYRQAPGKERELVAAISYSGGSTYYADSVKGRFTISRDNAKNTVYLQMNSLTPEDTAVYYCNAVFSRYSRLELGYWGQGTQVTVSS | high polyreactivity

Row | Sequence | polyreactivity (PSR sort gate)
23 | QLQLVESGGGLVQAGGSLRLSCAASGSTFGPYAMGWYRQAPGKDRELVASITRSGGDTYYADSVKGRFTISRDNAKNSVYLQMNSLKPEDTAVYYCNKASHANEFGYWGQGTQVTVSS | high polyreactivity
24 | QLQLVESGGGLVQAGGSLRLSCAASGSTFPWYTMGWYRQAPGKERELVAAITWNGVSTYYADSVKWRITISRDNAKNTVYFQMNSLKPEDTAVYYCATRIKRIGGFPYYYWGQGTQVTVSS | high polyreactivity
25 | QLQLVESGGGLVQAGGSLRLSCAASGSTLSDNAMGWYRQAPAKERELVASISWSGGTYYADSVKGRFTISRDNANNTVYLQMNSLKPEDTAVYYCAAYIYYNYSRQYWYDYWGQGTQVTVSS | low polyreactivity
26 | QLQLVESGGGLVQAGGSLRLSCAASGSTLYWNAMGWYRQAPGKERELVAGISIGGRTNYADSVKGRFTISRDNAKNTVYLQMNSLKPEDTAVYYCNAENTYLGSRYRPYNYWGQGTQVTVSS | low polyreactivity
27 | QLQLVESGGGLVQAGGSLRLSCAASGSTVAYNDMGWYRQAPGKERELVADIRSGGNTNYADSVKGRFTISRDNAKNTVYLQMNSLKTEDTAVYYCATDGYRIDVYHPDYRYDYWGQGTQVTVSS | low polyreactivity
28 | QLQLVESGGGLVQAGGSLRLSCAASGYIFFKYAMGWYRQAPWKERELVASITSRGGTTYYADSVKGRFTISRDNAKNTVYLQMNSLKPEDTAVYYCAALRRSSFGYWGQGTQVTVSS | high polyreactivity
29 | QLQLVESGGGLVQAGGSLRLSCAASGYIFGWYAMGWYRQAPGKERELVATIDWSGDSTYYADSVKGRFTISRDNAKNTVYLQLNSLKPEATAVYYCAVGYSYYPSDEFDYWGQGTQVTVSS | low polyreactivity
30 | QLQLVESGGGLVQAGGSLRLSCAASGYTFRFNAMGWYRQAPGKEREFVAAIDFGGAGTYYADSVKGRFTISRDNAKNTVYLQMNSLKPEDTAVYYCAADGQWYYAPFRGGDYENDYWGQGTQVTVSS | low polyreactivity
31 | QLQLVESGGGLVQAGGSLRLSCAASGYTIIQYAMGWYRQAPGKERELVAGITWSGGSTYADSVKGRFSISRDNAKNTVYLQMNSLKPEDTAVYYCAADDRDIYQYGTPYGSGIRYDYWGQGTQVTVSS | low polyreactivity
32 | QLQLVESGGGLVQAGGSLRLSCAASRRIFDRNAMGWYRQAPGKERELVARIDPGDDTNYADSVKGRFTISRDNAKNTVSLQMNSLKPEDSAVYYCATDPDYVLYRTAYYEYDYWGLGTQVTVSS | low polyreactivity
33 | QLQLVESGGGLVQAGGSLRLSSAASGFTFSIYAMGCYRQAPGKERELVAAINFGGGGTYYADSVKGRFTSSRDIAKNTVYLQMNSLKAEVTAVYDCAADYCYDYYSTEYDYWGQGTQVTVSS | low polyreactivity
34 | QLQLVESGGGLVQAGGSLRLSSAASGSIFYEYTMGWYRQAPGKEREVVAVITSGGTTNYADSVKGRFTISRDNANNTDYLQMNSLKPEDTAFYYCNAVYRTSFQRGGGYWGQGTQVTVSS | high polyreactivity
35 | QLQLVESGGVLVQAGGSLRLSCAASGRTFSEYLQGCYRPPPGKERELVAASTRGGGGTYYADSVKGRFTISRDNAKNTVYFQMNSLKPEDTAVYYCAAGRRGSAGYYRQFGYGYWGQGTQVTVSS | high polyreactivity
36 | QLQLVESGRGLVQAGGSLRLSCAASGRTFYGYDMGWYRPAPGKERELVATISSGGSTNYADSVKGRFTISRDNAKNTVYLQMNSLKPEDTAVYYCNADSYEYPSPYRYYYLGYDYWGQGTQVTVSS | low polyreactivity
37 | QLQLVESRPGLVPAGGSLRLSCAPSGSTFSYYAMGRYRQAPGKERELDAAISKSGGSTYYADSVKGRFTISRDNAINTVFLQMNSLKPYDTAFYYCSTRSRDPYSVSYRLDYWGQGTQVTVSS | low polyreactivity
38 | QLQLVESVGGLVQAGGSLRLSCASSGLIFYVSAMGSYRQAPGKERELVAAITSSGASTYYADSVKGRFTISRDNAKNTVYLQMNSLKPEDTAVYYCAGRYAGGRRAYGYWGQGTQVSVSS | high polyreactivity
39 | QLQLVESVGGVVQPGGSLRLSSAASGSNFRYYAIGWYRQAPGKERELVAAINWSGGSTYYADSVKGRVTISRDNAKNTVYLQMNSLKPEDTAVYYWAASWYYCRRYDYWGQGTQVTVSS | high polyreactivity
40 | QQLQESGGGLVQAGGSLRLSCAASGSISGSVLMGWYRQAPGKEREFVASISLGGNTNYADSVKGRFTISRENAKNTVYLQMNCLKPEVAAVYYCAAYISLFETHPYWGQGTQVTVSS | high polyreactivity
41 | QVELVESCGGLVQAGGSLRLSCAASGSTFTRNGMGWYSLAPGKEREMVAAISSGGSTNYADSVKGRFTISRDNAKNTVDFQKNSLQPEDTAVYYCAVDYRHSSSWNAGPWQMYYWGQGTQVTVSS | low polyreactivity
42 | QVELVESGGGLVLAGGSLRLSCADSGRTFSYYAMGWYRQAPGKERELVAVITSSGGSTSYADSVKGRFTISRDNAKNTVYLQMNSLKPEDTAVYDCAADPLAVYWAYYLIGVYYWGQGTQVTVSS | high polyreactivity
43 | QVELVESGGGLVQAGGSLRLSCAASGFTFRYYAMGWYRQAPGKERELVAAINASGGRTYYADSVKGRFTISRDNAKNTVYLQMNSLKPEDTAVYYCAARSIRQHYGMDYWGQGTQVTVSS | high polyreactivity
